Data published in PMC2866327, “Designed Inhibitors of Insulin-Degrading Enzyme Regulate the Catabolism and Activity of Insulin” (PLoS ONE, 2010).
Like-named read-outs stand apart in the source and are kept apart here. Square brackets hold non-standard residues; d marks the D form. Ends that are not written are not given here. 1Nal = N[C@@H](Cc1cccc2ccccc12)C(=O)O; diphenylalanine = not defined here

Key:
Conditions in all cases: modification not given
[1] = biological target: T1, insulin-degrading enzyme (recombinant human IDE) (human), P14735
[2] = biological target: T1, insulin-degrading enzyme (recombinant …); remark: listed apart in the source
[3] = biological target: T1, insulin-degrading enzyme (recombinant …); remark: listed apart in the source
[4] = biological target: T1, insulin-degrading enzyme (recombinant …); remark: listed apart in the source
[5] = biological target: T1, insulin-degrading enzyme (recombinant …); remark: listed apart in the source
[6] = biological target: T1, insulin-degrading enzyme (recombinant …); remark: listed apart in the source

**Q.** Which Ki [1] does the source give for [2‑benzothiophenylalanine]-Arg-Tyr [2-benzothiophenylalanine] here?
**A.** Its Ki is 1.1 µM.

**Q.** FRY [4-(tert-butyl)-phenylalanine] was tested. Which Ki [2] did it give?
**A.** Its Ki is 16 µM.

**Q.** For [1Nal]-Arg-Tyr [1-naphthylalanine], which Ki [3] is on record?
**A.** Its Ki is 0.7 µM.

**Q.** How did the Ki [4] turn out when FRY [3-fluorophenylalanine] was run?
**A.** The Ki was 7 µM.

**Q.** How did the Ki [5] turn out when [diphenylalanine]-Arg-Tyr (reading uncertain) [diphenylalanine] was run?
**A.** Its Ki is > 500 µM.

**Q.** With FRY [4-fluorophenylalanine] as the binder, how does the Ki [6] read?
**A.** Its Ki is 7 µM.
